From patent US20130295021A1 (published 2013)
One block for each binder: values may come before it. Non-standard residues stand in square brackets, D forms with d. No end group written: not given here. pT = C[C@@H](OP(=O)(O)O)[C@H](N)C(=O)O

Columns and labels:
[1] = target: T1, recombinant human tau, isoform Tau-F of 441aa (hTau40) (human, UniProt P10636 1-758); assay: direct ELISA, hTau40 coated at 3 µg/ml
T1 construct: Bought from rPeptide (Bogart, USA); also called full-length tau; rTau
Text: (§1) The EC₅₀ values were estimated by a non-linear regression using GraphPad Prism software.

[2] = target: T1, recombinant human tau, isoform Tau-F of …; assay: direct ELISA, hTau40 coated at 3 µg/ml (legend of FIG. 7)
Text: as §1

[3] = target: T1, recombinant human tau, isoform Tau-F of …; assay: ELISA on recombinant tau
[4] = target: T1, recombinant human tau, isoform Tau-F of …; assay: ELISA on recombinant tau (FIG. 15)
[5] = target: T2, peptide corresponding to amino acids 333-346 of hTau40 with an additional C-terminal cysteine (human); assay: direct ELISA on coated peptide (legend of FIG. 5)
T2 peptide: GGGQVEVKSEKLDFC

[6] = target: T1, recombinant human tau, isoform Tau-F of …; assay: direct ELISA, hTau40 coated at 1 µg/ml (legend of FIG. 2)
Description: (§2) 96 well microplates (Costar, Corning, USA) were coated with recombinant Tau protein (hTau40, rPeptide, Bogart, USA) diluted to a concentration of 1 μg/ml in carbonate ELISA coating buffer (50 mM, pH9.6) at 4° C. over night. Non-specific binding sites were blocked for 2 hr at RT with PBS containing 2% BSA (Sigma, Buchs, Switzerland) and 0.5% Tween20. […] EC₅₀ values were estimated by a non-linear regression using GraphPad Prism software (San Diego, USA).
as §1

[7] = target: T1, recombinant human tau, isoform Tau-F of …; assay: direct ELISA, hTau40 coated at 1 µg/ml
Description: as §2, §1

[8] = target: T3, peptide corresponding to amino acids 226-239 of human tau (226VAVVRpTPPKSPSSA239), cognate epitope of AT180 (human); assay: direct ELISA on coated peptide
T3 peptide: VAVVR[pT]PPKSPSSA

[9] = target: T4, PHFTau, paired helical filaments containing pathologically phosphorylated tau filaments extracted from AD … (human, UniProt P10636-8 1-441, limits assumed, pathologically phosphorylated; sites not given); assay: direct ELISA, PHFTau coated at 1:100; PHFTau coated at 1:100
T4 construct: Brain extract, aggregated and phosphorylated; also called pathologically modified tau isoforms
T4 sequence (P10636 other isoform, or with tags, fused parts or gaps limits assumed): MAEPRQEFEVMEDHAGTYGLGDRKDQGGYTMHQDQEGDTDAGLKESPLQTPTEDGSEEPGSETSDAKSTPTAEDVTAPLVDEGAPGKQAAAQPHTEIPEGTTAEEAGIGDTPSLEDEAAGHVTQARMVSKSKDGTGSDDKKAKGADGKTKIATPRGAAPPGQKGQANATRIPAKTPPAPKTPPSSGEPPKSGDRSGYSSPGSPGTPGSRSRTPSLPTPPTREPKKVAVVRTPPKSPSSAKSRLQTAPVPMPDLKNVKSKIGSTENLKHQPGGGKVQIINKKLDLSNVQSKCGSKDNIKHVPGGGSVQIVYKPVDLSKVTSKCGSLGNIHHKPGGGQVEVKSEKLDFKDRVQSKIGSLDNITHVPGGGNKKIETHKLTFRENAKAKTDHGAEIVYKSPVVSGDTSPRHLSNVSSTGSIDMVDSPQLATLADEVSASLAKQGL
Description: (§3) ELISA plates were coated with recombinant human tau (hTau40, 1 ug/ml), PHFTau (1:100) and control preparation (1:100), and incubated with varying antibody concentrations.

[10] = target: T5, bovine serum albumin (BSA) (UniProt P02769 25-607); assay: direct ELISA, plates coated with BSA
T5 construct: Control antigen
T5 sequence (P02769 25-607 limits assumed): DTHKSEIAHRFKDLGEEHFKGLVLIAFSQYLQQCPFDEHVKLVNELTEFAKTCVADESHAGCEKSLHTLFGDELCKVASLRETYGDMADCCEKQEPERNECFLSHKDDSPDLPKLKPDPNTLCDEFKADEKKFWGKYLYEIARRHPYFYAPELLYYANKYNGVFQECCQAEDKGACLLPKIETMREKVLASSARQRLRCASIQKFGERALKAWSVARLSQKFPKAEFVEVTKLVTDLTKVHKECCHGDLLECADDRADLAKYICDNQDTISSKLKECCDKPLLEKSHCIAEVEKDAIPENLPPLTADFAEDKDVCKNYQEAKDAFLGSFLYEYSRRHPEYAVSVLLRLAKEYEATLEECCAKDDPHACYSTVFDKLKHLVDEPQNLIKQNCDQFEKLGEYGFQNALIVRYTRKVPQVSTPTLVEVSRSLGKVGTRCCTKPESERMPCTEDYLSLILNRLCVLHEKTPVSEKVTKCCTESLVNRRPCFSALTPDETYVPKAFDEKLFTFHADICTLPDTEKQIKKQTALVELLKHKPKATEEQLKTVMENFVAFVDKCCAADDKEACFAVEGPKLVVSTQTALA
Description: To validate tau as a recognized target of isolated antibodies direct ELISA assays were performed as described above. […] No binding is observed to BSA (FIG. 10).

[11] = target: T1, recombinant human tau, isoform Tau-F of …; assay: direct ELISA, hTau40 coated at 1 ug/ml; hTau40 coated at 1 ug/ml
Description: as §2, §3

[12] = target: T6, His-tagged tau domain II (AA 136-258 of hTau40) (human, UniProt P10636 387-575); assay: Western blot
T6 construct: Expressed in E. coli BL21 (DE3) and purified on Ni-NTA
T6 sequence (P10636 other isoform, or with tags, fused parts or gaps): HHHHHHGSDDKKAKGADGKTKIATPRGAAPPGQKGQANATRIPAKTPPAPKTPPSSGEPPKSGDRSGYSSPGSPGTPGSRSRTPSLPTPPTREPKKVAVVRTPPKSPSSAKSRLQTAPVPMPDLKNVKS
Description: (§4) DNA fragments, synthesized using GeneArt® (Invitrogen), which encode each Tau domain with 6×His tagged at the N-terminus were cloned into the pRSET-A expression vector (Invitrogen), were transfected into E. Coli BL21 (DE3) (New England Biolabs). The expressions of the His-tagged Tau domains were induced by 0.5 mM IPTG for six hours before bacteria were lysed with lysozyme with sonication. The lysate was boiled for five minutes before being further purified with Ni-NTA Superflow Columns (Qiagen). The eluted His-tagged Tau domains were coated on ELISA plates or loaded on polyacrylamide gel for Western Blot. These sequentially overlapping tau domain polypeptides cover the full length of hTau40 (FIG. 13A).

[13] = target: T7, His-tagged tau domain III (AA 235-373 of hTau40) (human, UniProt P10636 552-690); assay: Western blot
T7 construct: Expressed in E. coli BL21 (DE3) and purified on Ni-NTA
T7 sequence (P10636 other isoform, or with tags, fused parts or gaps): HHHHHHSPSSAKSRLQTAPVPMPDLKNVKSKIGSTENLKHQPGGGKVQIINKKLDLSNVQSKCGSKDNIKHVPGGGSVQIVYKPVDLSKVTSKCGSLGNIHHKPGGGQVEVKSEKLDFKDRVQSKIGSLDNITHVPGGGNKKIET
Description: as §4

[14] = target: T8, His-tagged tau domain IV (AA 355-441 of hTau40) (human, UniProt P10636 672-758); assay: Western blot
T8 construct: Expressed in E. coli BL21 (DE3) and purified on Ni-NTA
T8 sequence (P10636 other isoform, or with tags, fused parts or gaps): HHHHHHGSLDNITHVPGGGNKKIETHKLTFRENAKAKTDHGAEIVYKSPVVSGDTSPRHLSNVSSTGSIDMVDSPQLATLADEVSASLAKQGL
Description: as §4

T1 sequence (P10636 other isoform, or with tags, fused parts or gaps limits assumed): as the sequence (P10636 other isoform, or with tags, fused parts or gaps limits assumed) above

B1: recombinant human tau antibody NI-105.24B2 (antibody, human IgG1, V domains shown)
VH: QVQLVQSGAEVKKPGASVKVSCKASGYTFVNYIIHWVRQAPGQGLEWMGIINPNGGNTSYAEKFQARVTLTSDTSTSTVYMDLSSLTSEDTAVYYCAVLSPSNPWGQGTTVTVSS
VL: SYELTQPPSVSVSPGQTAGITCSGDALPKQFVYWYQKKPGQAPVLLIYKDTERPSRIPERFSGSTSGTTVALTINGVQAEDEADYYCQSADRSGALWVFGGGTKLTVL
EC50 [1]: 6.6 nM
EC50 [2]: 6 nM

B2: ch4E4(N30Q), mouse IgG2a/lambda (antibody, V domains shown)
VH: EVQLVESGGGLVQPGGSLKLSCAASGFNFQISAIHWVRQASGKGLEWVGRIRSKSHNYATLYAASLKGRFTLSRDDSRNTAYLQMSSLQTEDMAVYYCTVLSANYDTFDYWGQGTLVTVSS
VL: SYELTQPPSVSVSPGQTARISCFGDTLPKQYTYWYQQKPGQAPVLVIYKDTERPSGIPERFSGSSSGTTVTLTISGVQAEDEADYYCLSADNSATWVFGGGTKVTVLG
notes: Produced in and purified from CHO cells; also called the modified antibody
EC50 (read off the curve) [3]: ~0.04 µg/mL
fold higher apparent binding affinity relative to the original, glycosylated antibody (ch4E4) [4]: ~4 fold

B3: ch4E4(N30Q) mIgG1 Agly (antibody, V domains shown)
VH: EVQLVESGGGLVQPGGSLKLSCAASGFNFQISAIHWVRQASGKGLEWVGRIRSKSHNYATLYAASLKGRFTLSRDDSRNTAYLQMSSLQTEDMAVYYCTVLSANYDTFDYWGQGTLVTVSS
VL: SYELTQPPSVSVSPGQTARISCFGDTLPKQYTYWYQQKPGQAPVLVIYKDTERPSGIPERFSGSSSGTTVTLTISGVQAEDEADYYCLSADNSATWVFGGGTKVTVLG
notes: also called ch4E4(N30Q) IgG 1-Agly; mouse chimeric aglycosylated variant of 4E4
EC50 (read off the curve) [3]: ~0.04 µg/mL

B4: recombinant human tau antibody NI-105.4E4 (antibody, V domains shown)
VH: EVQLVESGGGLVQPGGSLKLSCAASGFNFNISAIHWVRQASGKGLEWVGRIRSKSHNYATLYAASLKGRFTLSRDDSRNTAYLQMSSLQTEDMAVYYCTVLSANYDTFDYWGQGTLVTVSS
VL: SYELTQPPSVSVSPGQTARISCFGDTLPKQYTYWYQQKPGQAPVLVIYKDTERPSGIPERFSGSSSGTTVTLTISGVQAEDEADYYCLSADNSATWVFGGGTKVTVL
binding result [5]: binds
EC50 [6]: 2 nM
EC50 [7]: 2.4 nM
binding result [8]: no binding

Further lines, results first:

EC50 (read off the curve) [3]: ~0.2 µg/mL
B5: chimeric 4E4 (ch4E4), mouse IgG2a/lambda (antibody, V domains shown)
VH: EVQLVESGGGLVQPGGSLKLSCAASGFNFNISAIHWVRQASGKGLEWVGRIRSKSHNYATLYAASLKGRFTLSRDDSRNTAYLQMSSLQTEDMAVYYCTVLSANYDTFDYWGQGTLVTVSS
VL: SYELTQPPSVSVSPGQTARISCFGDTLPKQYTYWYQQKPGQAPVLVIYKDTERPSGIPERFSGSSSGTTVTLTISGVQAEDEADYYCLSADNSATWVFGGGTKVTVLG
modifications: N-glycan on Asn-30 (fully occupied on CHO expression)
notes: also called original, glycosylated antibody

EC50 [9]: 1.2 nM
binding result [10]: no binding
EC50 [11]: 1.4 nM
binding result [12]: no binding
binding result [13]: no binding
binding result [14]: no binding
B6: recombinant human tau antibody NI-105.4A3 (antibody, human IgG1, V domains shown)
VH: QVQLVESGGGAVQPGGSLRLSCAASGFTFSDYAMHWVRQAPGKGLQWVAVISYEGTYKYYADSVKGRFTISRDNSKNTLNLQMSSLRVEDTAVYFCVKARAFASGQRSTSTVPDYWGQGTLVTVSS
VL: SYELTQPPSVSVSPGQTARITCSGDALPKKYAYWYQQKSGQAPVLVIYEDNKRPSGIPERFSGSSSGTVATLTISGAQVDDEADYYCYSTDISGDLRVFGGGTKLTVL
